Measurements taken from the DeepSol protein solubility set.

Experiment: soluble on expression in E. coli; label from the status in PepcDB or PDB records

| Sequence | soluble on expression in E. coli |
| --- | --- |
| MLPDVQLLKPEVPIGLSRVGATGIKKLVEVQREGKRPIILISTFDVFVDLPAHLKGVNLSRNFEVIDEVLETLTAKPIENIEDLVVEIADHLLKRHEYATKAEARMNSELIMRKRTPKTGQRTQEVVKIFGEATLGRDGSKVIMVGVEVTGITACPCAQELVKASSAERLAKMGFDEETIQKILDAIPVATHNQRGRATLKVQVTDSFKVPIAKLIDVAKSSMSYETYEILKREDELAVVEAAHRNTRFVEDGVRYMAMELLKTFPNAPDDILVFLRQENEESIHQHNVVAERFA | not soluble |
| MLPQRLKKAITDNPKKLGNLIDLVNLPSTLRNFVGQSQISRLGCFMRVWSYIKTNNLQDPKNKNVVICDEKLKSILLGKQRVELVDLPSLIKLHFPKEQKKNSQKI | not soluble |
| MLQISHLYADYGGKPALEDINLTLESGELLVVLGPSGCGKTTLLNLIAGFVPYQHGSIQLAGKRIEGPGAERGVVFQNEGLLPWRNVQDNVAFGLQLAGIEKMQRLEIAHQMLKKVGLEGAEKRYIWQLSGGQRQRVGIARALAANPQLLLLDEPFGALDAFTRDQMQTLLLKLWQETGKQVLLITHDIEEAVFMATELVLLSSGPGRVLERLPLNFARRFVAGESSRSIKSDPQFIAMREYVLSRVFEQREAFS | soluble |
| MLQVTGIPDACDNLAPIPMECDAPFLSIKGELPRELNGTLYRNGANPQFVSPNAHWFFGDGMLHAFHLENGRASYRNRWVRTPKWLAEHEAGRPLYGEFNLKLPDAPRSVPDDGNVANTNIVFHAGRLLALEEAHLPMQIERDTLETRCYCDYGGALKGPFTAHPKIDPVTGEMLFFGYNASGPLTRTMSFGAIDASGNVTRLEHFKAPFAAMVHDFIVTEHHVLFPILPLTGSIWRAMRGRPPYAWDPRKGSYVGVMKRSGSTRDVRWFRGEACFVFHVMNAWEDGTRIVADVMQSEEAPLFTHPDGRRTDPEKGRARLCRWSFDLAGNTNAFKRSYLDEISGEFPRIDERRAGLRSGHGWYACASPETPMLGMLTGLVHVDGNGHRRTRYLLPTGDTIGEPVFVPRAADANEAEGWLLAVVWRGCENRSDLAVFNATDIAAGPIALVQLGHRIPDGFHGNWVPAGAAALEHHHHHH | not soluble |
| MLRDTFANTLKDALKARDARRTSTVRLIQAAVKDRDIANRGVGKDPVSDEDIMQILTKMVKQREESATIYEGAGRPELAAQEREEIVIIKEFMPEEIPAEKVRELCQAVISETGASGLRDMGKCMNALKERYPGQIDFAKASGVVKDLLK | not soluble |
| MLRIIVIGTTGSGKTTFARALAQRLGLPHGEQDAWNHEANWQMAPLGRFRARVDTFTSQPAWVMDGNYGKARDLGWARADTLIWLDFPAWLVYSRLVRRTLWRVLTQQELWNGNRETWRGALLDPEGPLRWFWKTHWRRRQETPALAAEFPHLRLVRLRSPGEARRFLAAVGRGHPTALEHHHHHH | not soluble |
| MLRKDIGIDLGTANTLVFLRGKGIVVNEPSVIAIDSTTGEILKVGLEAKNMIGKTPATIKAIRPMRDGVIADYTVALVMLRYFINKAKGGMNLFKPRVVIGVPIGITDVERRAILDAGLEAGASKVFLIEEPMAAAIGSNLNVEEPSGNMVVDIGGGTTEVAVISLGSIVTWESIRIAGDEMDEAIVQYVRETYRVAIGERTAERVKIEIGNVFPSKENDELETTVSGIDLSTGLPRKLTLKGGEVREALRSVVVAIVESVRTTLEKTPPELVSDIIERGIFLTGGGSLLRGLDTLLQKETGISVIRSEEPLTAVAKGAGMVLDKVNILKKLQGAGGSHHHHHH | soluble |
| MLRLLLLCWLCGVSFIGGAQELRVKDTASLTQALVQAQDGDTLVLDTAVYEGNFSVTRSIHIKGEAGATLDAQRQGSALTITAPKVIVEGLNIRHWGRDLYYHDAGILLLPGADEVLIKGNRFVGDGFGIYGEQLASPRIIENSISGNGAIYVLDRGDGIFLKHVTAPDVQQNHIIFVRDGVYLESVTDSKIHHNQFAKLQYGIHYMYTRGDEASQNQATSVDGGYALMNSQQIYLHHNRVSQARDFGILLNITNDSHVQANIATEVQHPQGSVELGNEGKGIFIYAAQNNRIEDNEFSQSDTGISMAMGGEANRLWHNRILGNQTQVKYVGEAQLEWSYQGQGNYWSEYRGWDTNGDGVGDIAHRPNDSLDKLFWLYPEAKLLMESPVVLLLRWVERQFQPTSISGVSDSFPLMRLITEGDGIAAALEHHHHHH | soluble |
| MLRRYSHFYSIRYSSTLLSTLDGLTNRTSGDKLLTYSEKFSKLYANSTPETRKSIFVDLVTNYGVNKEALNHAISLYSKNDQMYPEVRTSATASYVNLIKSIGNLPGGVMQVCEMRANILALLKRETDKTTTSYLRHIELATREVLTSWFSLGNLKLERLTWSSPGDILQKVAEYEAVHPVRGLSDFRKRLGPLRRCFYFSHEALPRNPLVMVHVALVDEIADSVQEITKRGAPTGKEEDQTTAIYYSITSTQPGLSGIDLGNMLIKKVATKLQKDVPSVTTHSTLSPIPGFRPWLIRNLKGNSEYPSIMNEKVVNWISDISEREMNEVEATETLLKVISNEKTKKEQLNAIQHILMYACAHYLCNAKRNGMALNSVANFHIRNGAELYRLNWNGDTSHRGINNSFGIMVNYRYDLEKVHENSAAYTEHKKMAINQKVLDIF | not soluble |
| MLRSNLCRGSRILARLTTTPRTYTSAATAAAANRGHIIKTYFNRDSTTITFSMEESSKPVSVCFNNVFLRDASHSAKLVTTGELYHNEKLTAPQDIQISEDGKSLVVKWKDGGHHQFPLQFFIDYKGSSFVSPATRKQESRYRPQLWNKRILKDNVKDLLSVSYNEFIDPKDDSKLFQTLVNLQKFGIAFISGTPSSSSEGLTIQKICERIGPIRSTVHGEGTFDVNASQATSVNAHYANKDLPLHTDLPFLENVPGFQILQSLPATEGEDPNTRPMNYFVDAFYATRNVRESDFEAYEALQIVPVNYIYENGDKRYYQSKPLIEHHDINEDNTLLGNYEALIKCINYSPPYQAPFTFGIYDKPSDLNNNLDLNLITTPAKLTERFLFKSFIRGLNLFESHINDFNNQFRLQLPENCCVIFNNRRILHANSLTSSNQQWLKGCYFDSDTFKSKLKFLEEKFPHDK | soluble |
| MLRSTSDRFRWSSLSLAIACTLPLATQAADTTTTQTSSKKHSTDTMVVTATGNERSSFEAPMMVTVIEGNAPTSQTAATAADMLRQVPGLTVTGSGRTNGQDVVMRGYGKQGVLTLVDGVRQGTDTGHLNSTFLDPALVKRIEIVRGPAALLYGSGALGGVIAYETVDAADMLQPGQNSGYRVYSSAATGDHSFGLGASAFGRTDDLDGILSFGTRDIGNIRQSNGFNAPNDETISNVLAKGTWQIDSIQSLSANLRYYNNSAIEPKNPQTSAPSSTNVMTNRSTIQRDAQLRYNIKPLDQEWLNATAQVYYSEVEINARPQGSAEEGREQTTEGVKLENRTRLFIESPASHLLTYGTETYKQEQTPGGATESFPQAKIRFSSGWLQDEITLRDLPVSILAGTRYDNYSGSSDGYADVDADKWSSRGAISITPTDWLMLFGSYAQAFRAPTMGEMYNDSKHFAIPIRPGLTLTNYWVPNPNLKPETNETQEYGFGLRFSDLLMAEDDLQFKVSYFDTKAKDYISTRVDMQAMTTTSVNIDQAKIWGWDASMSYKTALFNWDLAYNRTRGKNQNTDEWLDTINPDTVTSIVDVPVANSGFSVGWIGTFANRSSRVSSSTPQAGYGVNDFYVSYKGQEAFKGMTTTMLLGNVFEKEYYTPQGIPQDGRNVKFFVSYQW | not soluble |
| MLSCRDLVIRQGGKVLWQNLTFTISAGERVGIHAPSGTGKTTLGRVLAGWQKPTAGDVLLDGSPLPLHQYCPVQLVPQHPELTFNPWRSAGDAVRDAWQPDPETMRRLHVQPEWLTRRPMQLSGGELARIAILRALDPRTRFLIADEMTAQLDPSIQKAIWVYVLEVCRSRSLGMLVISHQSALLDQVCTRHLQVE | not soluble |
| MLSEVEFVEFQKENFSLLIDARSPREFLHSHLIGALNFYALNDEEYQEIGTIYKKNQALAKAMGASYICQNTTKHILEITQNFRIGEKVGIYCSRGGLRSKSIAVILSELGFRVVRLKGGFKAYRTFVTHYFENEINFDFFALCGNTGCGKTELLEQLPQAINLEKMANHLGSSFGDILGKQPTQKAFEAELFHNIQNLENFAFIESESRKIGDIILPLKFYEKMQKAFKIYCFCSLENRVRRIQKIYQEKMTPLKFQQCVQKISPYISLNLRQDLLQSYERKEWQKLIVMLLEYYDKTYKKPDKIDLELNTDDILKAKEELLDHFKVQLLF | not soluble |
| MLSKNLLEALNDQMNHEYFAAHAYMAMAAYCDKESYEGFANFFIQQAKEERFHGQKIYNYINDRGAHAEFRAVSAPKIDFSSILETFKDSLSQEQEVTRRFYNLSEIARQDKDYATISFLNWFLDEQVEEESMFETHINYLTRIGDDSNALYLYEKELGARTFDEE | not soluble |
| MLSNDILRSVRYILKANNNDLVRILALGNVEATAEQIAVWLRKEDEEGFQRCPDIVLSSFLNGLIYEKRGKDESAPALEPERRINNNIVLKKLRIAFSLKTDDILAILTEQQFRVSMPEITAMMRAPDHKNFRECGDQFLRYFLRGLAARQHVKKG | soluble |
| MLSQLREIVEKVSRVDDVHLALDILVKETCAALRTECCTIYLANEEMQRLELMATQGLIFEGDSIHINFNEGLVGLVKRSAEPLNLAEASKHPEFKFFPQLGEQVYHSFLATPIIHRKQVLGVLVIQQKTPRLFSEMEESFLVTLSAQLAVIIAHAQSLGHWQ | not soluble |
| MLTEEKEDYLKAILTNNGDKNFVTNKILSQFLNIKPPSVSEMVGRLEKAGYVETKPYKGVRLTEDGLTHTLDIIKRHRLLELFLIEILKYNWEEVHQEAEILEHRISDLFVERLDSLLNFPETCPHGGVIPRNNEYKEKYITTILNYEPGDIVTIKRVRDKTDLLIYLSSKDISIGNEVEIVSKDEMNKVIIIKRNDNVIIVSYENAMNMFAEK | not soluble |
| MLTGCSRRELLDDYPVSGVDIKLDWNGVTDKLPEGVRVIFYPKSAEGRKIDTYLSVRGGKVKVPPGRYSVVAYNYDTETVQIRGEEAYETIEAFTGYCNGLGIAGTEKMVWGPDPLYVVQIDDLHIANSEEELLLDWKPKLVVKTYFFKIKVEGLEYVSSIVGSVEGMAGCYCLGRCCGMMCDAPIYFEAQGRSGEVTGSFTAFGMPEAAISRAGDKIKLTLAFIKVDKTVQKAEIDITEVVTNSESGGSGGGNVDEPPTEIELPLDEKVKVEKPTTNPDGGGGGIGGDVGDWGDEDEVVLPVE | not soluble |
| MLTIIKTILDVIVGVKERDYVKNTFNQLLKEKNITNYQYIRTAGNQILIDDRDILYVIHDKGWVSRGYGRITDIELSIDDSVAFQSSLSSATGRAIAGGVLAGGVGAIIGGVTGRKNGKKIVHRITLTISFNTPDRPYARVTFLDNQQGVDIYSDEYKRAEEDALYWSKLISSLMN | not soluble |
| MLTLLMCGGKGTRLGRGEKPLFEVCGMKLIDHSLLQYKDFDVIAITSPHTPATESYLAEKGVEVYRAAGKGYIEDYSEACRELAINEPVIVASADIVYIRDIAFDIVDAYMKTIKPALTVVMEGEPVGVNIIDSLLINTWQEEEIYSIEKDSVVNVNTVADVERAERLWTTMRKERGWQRDLEHHHHHH | soluble |
| MLTMKDVIREGDPILRNVAEEVVIPASEEDTNTLKEMIEFVINSQDPEMAEKYSLRPGIGLAAPQIGISKKMIAVHVTDTDGTLYSHALFNPKIISHSVERTYLQSGEGCLSVDREVPGYVPRYTRITVKATSINGEEVKLRLKGLPAIVFQHEIDHLNGVMFYDHINKENPFAAPDGSKPLER | not soluble |
